T1: OX40 (human, UniProt P43489 29-216, limits assumed)
T1 sequence (looked up): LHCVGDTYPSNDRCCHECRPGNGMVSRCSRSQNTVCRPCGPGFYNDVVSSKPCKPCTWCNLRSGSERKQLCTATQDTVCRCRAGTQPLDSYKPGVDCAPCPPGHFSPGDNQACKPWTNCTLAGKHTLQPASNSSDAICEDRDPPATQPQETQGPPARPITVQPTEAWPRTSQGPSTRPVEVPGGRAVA

T2: GITR (human, UniProt Q9Y5U5 26-161, limits assumed)
T2 sequence (looked up): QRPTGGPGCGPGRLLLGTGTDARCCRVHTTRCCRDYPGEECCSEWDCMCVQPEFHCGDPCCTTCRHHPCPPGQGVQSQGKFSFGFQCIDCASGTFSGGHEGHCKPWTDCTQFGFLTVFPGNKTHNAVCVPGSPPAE

T3: mouse 4-1BB extracellular domain, His tag (mouse, UniProt P20334 24-187)
T3 construct: extracellular domain; also called mPro1.ECD.His; not shown: His tag
T3 sequence (looked up): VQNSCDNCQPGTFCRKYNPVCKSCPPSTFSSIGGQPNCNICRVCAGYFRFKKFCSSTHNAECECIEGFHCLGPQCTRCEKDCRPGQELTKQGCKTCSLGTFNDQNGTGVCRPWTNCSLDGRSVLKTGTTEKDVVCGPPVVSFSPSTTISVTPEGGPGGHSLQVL


Columns and labels:
CD40 = CD40 (human, UniProt P25942 21-193, limits assumed); experiment: ELISA on plate-coated antigen, HRP goat anti-human IgG Fc, OD450-OD540; antibody concentration not given
Description: (§1) Cross-reactivity to TNFR family members OX40, CD40 and GITR was determined by ELISA. Plates (Nunc) were coated with OX40, CD40 or GITR overnight at 4° C. After blocking and washing, anti-4-1BB antibodies were added to the plates and incubated at room temperature for 1 h. The plates were then washed and subsequently incubated with secondary antibody, HRP Conjugated Goat anti-human IgG Fc Fragment antibody (Bethyl), for 45 min. After washing, TMB substrate was added and the color reaction was stopped by 2M HCl. The absorbance at 450 and 540 nm were read using a microplate reader (Molecular Device).

OX40 = target: T1, OX40; experiment: as above
Description: as §1

GITR = target: T2, GITR; experiment: as above
Description: as §1

[1] = target: T4, cynomolgus 4-1BB extracellular domain, His tag (cynomolgus, UniProt A9YYE7 24-186); experiment: SPR, Biacore T200; antibody captured on Protein G chip, cynomolgus 4-1BB ECD.His as analyte
T4 construct: extracellular domain; also called cynoPro1.ECD.His; ACRO-41B-C52H4; not shown: His tag
Description: (§2) Antibodies were characterized for affinity and binding kinetics to human, cynomolgus and mouse 4-1BB by SPR assay using Biacore T200 (GE). Protein G was pre-immobilized to a sensor chip (CMS), and anti-4-1BB antibodies were captured when injected to the chip. Various concentrations of human 4-1BB and running buffer were flowed through the sensor chip for an association phase, and followed by dissociation. The association and dissociation curve was analyzed using Biacore T200 Evaluation software Version 2.0.

[2] = target: T5, human 4-1BB extracellular domain, His tag (human, UniProt Q07011 24-186); experiment: SPR, Biacore T200; antibody captured on Protein G chip, 4-1BB ECD.His as analyte
T5 construct: also called hPro1.ECD.His; not shown: C-terminal His tag
Description: as §2

[3] = target: T6, human 4-1BB, full-length, on cells (human, UniProt Q07011 24-255); experiment: flow cytometry on human 4-1BB-expressing CHO-K1 cells, PE goat anti-human IgG Fc, MFI
T6 construct: also called human 4-1BB expressing CHO-K1 cells; cell surface 4-1BB
Description: Human 4-1BB-expressing CHO-K1 cells were transferred into 96-well U-bottom plates at a density of 1×10⁵ cells/well. […] After washing, the secondary antibody, PE labeled Goat anti-human IgG Fc Fragment (Jackson ImmunoResearch), was applied and incubated with cells at 4° C. in the dark for 1 h. The cells were then washed and re-suspended in PBS and then analyzed by a flow cytometer (BD).

[4] = target: human 4-1BB protein (coated on ELISA plates) (human, UniProt Q07011 24-186, limits assumed); experiment: competition ELISA on plate-coated human 4-1BB; competitor: biotinylated BMK4, detected with streptavidin-HRP, OD450-OD540
Description: Plates were pre-coated with human 4-1BB protein at 4° C. overnight. After blocking, various concentrations of testing antibodies were pre-mixed with biotinylated BMK antibodies and added to the plates. The plates were incubated at ambient temperature for 1 hour. The binding of the BMK antibodies to human 4-1BB was detected by streptavidin-HRP. The color was developed by dispensing TMB substrate, and then stopped by 2N HCl. The absorbance was read at 450 nm and […] using a microplate spectrophotometer.

[5] = target: T3, mouse 4-1BB extracellular domain, His …; experiment: SPR, Biacore T200; antibody captured on Protein G chip, mouse 4-1BB ECD.His as analyte
Description: as §2

[6] = target: T7, mouse 4-1BB, full-length, on cells (mouse, UniProt P20334 24-256); experiment: flow cytometry on murine 4-1BB-expressing CHO-K1 cells, PE goat anti-human IgG Fc, MFI
T7 construct: whole, on cells; also called murine 4-1BB expressing CHO-K1 cells
Description: Murine 4-1BB-expressing CHO-K1 cells were transferred into 96-well U-bottom plates at a density of 1×10⁵ cells/well. Testing antibodies were serially diluted in PBS containing 1% BSA, and incubated with cells at 4° C. for 1 h. After washing, the secondary antibody, PE labeled Goat anti-human IgG Fc Fragment (Jackson ImmunoResearch), was applied and incubated with cells at 4° C. in the dark for 1 h. The cells were then washed and resuspended in PBS and then analyzed by flow cytometer (BD).

| Binder | binding result (CD40) | binding result (OX40) | binding result (GITR) | Kd [1] | koff [1] | kon [1] | Kd [2] | koff [2] | kon [2] | EC50 (read off the curve) [3] | IC50 (read off the curve) [4] | Kd [5] | koff [5] | kon [5] | EC50 (read off the curve) [6] |
| --- | --- | --- | --- | --- | --- | --- | --- | --- | --- | --- | --- | --- | --- | --- | --- |
| 2.27.16-u1-1-hIgG1L (antibody, V domains shown, Fully human antibody) VH: QEQLQESGPGLVKPSQTLSLTCTVSGGSINSQGYYWSWIRQHPGKGLEWIGYIYDSGSAYYNPSLERRVAISLDTSKNQFSLNLNSVTVADTAVYYCARIVAAGRIDPWGQGTLVTVSS VL: SYVLTQPPSVSVAPGQTARMTCGGDNIGIKIVHWYQQKAGQAPVLVVYDDNDRPSGIPDRFSGSNSGNTATLTISRVAAGDEADYYCQVWDRRSDHVVFGGGTKLTVL | no binding | no binding | no binding | 0.142 nM | 3.07e-05 s⁻¹ | 217000 M⁻¹ s⁻¹ |  |  |  |  |  | 8.49 nM | 0.00134 s⁻¹ | 158000 M⁻¹ s⁻¹ | ~0.9 nM |
| 2.27.16-u1-1-hIgG4L (antibody, V domains shown) VH: QEQLQESGPGLVKPSQTLSLTCTVSGGSINSQGYYWSWIRQHPGKGLEWIGYIYDSGSAYYNPSLERRVAISLDTSKNQFSLNLNSVTVADTAVYYCARIVAAGRIDPWGQGTLVTVSS VL: SYVLTQPPSVSVAPGQTARMTCGGDNIGIKIVHWYQQKAGQAPVLVVYDDNDRPSGIPDRFSGSNSGNTATLTISRVAAGDEADYYCQVWDRRSDHVVFGGGTKLTVL | no binding | no binding | no binding | 0.439 nM | 0.000101 s⁻¹ | 230000 M⁻¹ s⁻¹ |  |  |  |  |  | 6.27 nM | 0.00136 s⁻¹ | 217000 M⁻¹ s⁻¹ | ~0.8 nM |

These reach a lower Kd [1]. Values come first.

| binding result (CD40) | binding result (OX40) | binding result (GITR) | Kd [1] | koff [1] | kon [1] | Kd [2] | koff [2] | kon [2] | EC50 (read off the curve) [3] | IC50 (read off the curve) [4] | Kd [5] | koff [5] | kon [5] | EC50 (read off the curve) [6] | Binder |
| --- | --- | --- | --- | --- | --- | --- | --- | --- | --- | --- | --- | --- | --- | --- | --- |
| no binding | no binding | no binding | 0.0164 nM | 2.96e-05 s⁻¹ | 1.81e+06 M⁻¹ s⁻¹ | 0.0257 nM | 6.48e-05 s⁻¹ | 2.52e+06 M⁻¹ s⁻¹ | ~0.07 nM | ~0.9 nM | 26.1 nM | 0.975 s⁻¹ | 3.73e+07 M⁻¹ s⁻¹ |  | 2.19.8-u1-3-hIgG1L (antibody, V domains shown, Fully human antibody) VH: QVQLVESGGGLVKPGGSLRLSCAASGFTFSDYFMSWIRQAPGKGLEWVSYISNAGSSKYYADSVKGRFTISRDNAKNSLYLQMNSLRAEDTAVYYCVRDPYSGSYSGWFDPWGQGTLVTVSS VL: SYDLTQPPSVSVSPGQTASITCSGDDLGDKYTSWYQQKPGQSPVLVVYQDHKRPSGIPERFSGSNSGNTATLTISGTQAMDEADYYCQAWDKGIVVFGGGTKLTVL |
| no binding | no binding | no binding | 0.0158 nM | 2.93e-05 s⁻¹ | 1.86e+06 M⁻¹ s⁻¹ | 0.0177 nM | 3.74e-05 s⁻¹ | 2.11e+06 M⁻¹ s⁻¹ | ~0.06 nM | ~1 nM | 18.4 nM | 0.215 s⁻¹ | 1.17e+07 M⁻¹ s⁻¹ |  | 2.19.8-u1-3-hIgG4L (antibody, V domains shown) VH: QVQLVESGGGLVKPGGSLRLSCAASGFTFSDYFMSWIRQAPGKGLEWVSYISNAGSSKYYADSVKGRFTISRDNAKNSLYLQMNSLRAEDTAVYYCVRDPYSGSYSGWFDPWGQGTLVTVSS VL: SYDLTQPPSVSVSPGQTASITCSGDDLGDKYTSWYQQKPGQSPVLVVYQDHKRPSGIPERFSGSNSGNTATLTISGTQAMDEADYYCQAWDKGIVVFGGGTKLTVL |

— US20210230287A1 (WUXI BIOLOGICS SHANGHAI, published 2021)
